In experiment [1] the test system is gamma secretase. As to the kind of experiment: Chimeric Notch receiver cell activation by CD19 sender cells with or without gamma secretase inhibitor DAPT. The following applies: sender cells expressing CD19, 1 mM DAPT. It counts as cell-based, mouse. The text has this: DAPT is a gamma secretase inhibitor. The data are expressed as GFP^+ “receiver” cells.
(FIG. 86A) Mouse fibroblasts (L929 line) with anti-CD19/tTA synNotch are cultivated with sender cells expressing Delta, or CD19, or CD19 in the presence of the gamma-secretase inhibitor DAPT. FACS plots of the resulting GFP intensity in receiver cells are shown.

Experiment [2] deals with HCT116 colon cancer cells. As to the kind of experiment: Sensitivity of cancer cell line to recombinant TRAIL. It counts as cell-based. On the procedure:
(§1) The cells were then harvested and stained with the live/dead stain, SYTOX Blue (Thermo Scientific # S34857) and the fraction of dead cells was determined by flow cytometry on a BD LSR II.

Experiment [3] has as its system K562 cells. The experiment is described as above. Type of experiment: cell-based. The protocol: as §1

As for `C[C@H](NC(=O)Cc1cc(F)cc(F)c1)C(=O)NC(C(=O)OC(C)(C)C)c1ccccc1` (stereo partly drawn) [DAPT], the “GFP+ receiver cells” value in experiment [1] is listed as “at control, untreated levels”.

B1: soluble TRAIL: recombinant TRAIL, an inducer of apoptosis and a cancer therapeutic (protein, UniProt P50591 39-281, looked up)
extracellular domain: TNELKQMQDKYSKSGIACFLKEDDSYWDPNDEESMNSPCWQVKWQLRQLVRKMILRTSEETISTVQEKQQNISPLVRERGPQRVAAHITGTRGRSNTLSSPNSKNEKALGRKINSWESSRSGHSFLSNLHLRNGELVIHEKGFYYIYSQTYFRFQEEIKENTKNDKQMVQYIYKYTSYPDPILLMKSARNSCWSKDAEYGLYSIYQGGIFELKENDRIFVSVTNEHLIDMDHEASFFGAFLVG
modifications: extracellular domain
notes: recombinant TRAIL, an inducer of apoptosis and a cancer therapeutic
B1: the cell killing result in experiment [2] is given as “effective at killing”. Further, in experiment [3], the induction of apoptosis entry was “does not induce apoptosis even at high doses”.

The record behind these values is US10590182B2, “Binding-triggered transcriptional switches and methods of use thereof” (The Regents of the University of California, priority 2015, dated 2020).
